# Assay results: the DeepSol protein solubility set
# Assay: soluble on expression in E. coli; label from the status in PepcDB or PDB records
row,Sequence,soluble on expression in E. coli
1,MGSDKIHHHHHHMSVQISVVAATLNEIDNIEQFIDGVEGVLKGMEFEIIVVDDNSSDGTKEYLARRMNEDTHVVVIENPYRFGMLRSLKLGIEKAGGEIVLVMDADMQHPPSAIPKLISRIVDGCDIVVGSRYVDGGSAGDRDAFRAALSRGAEFLAHALVPSSRMTSDPMSGFFAFRRDLRHDFAYRQTFATADYGAKILLIILAENRHAKVCDVGYVFQSRMRGKSKIVSGTSFLKRYLAELFEVMKLERRYRHMQ,not soluble
2,ENVYGYLMKYTNLVTGWQYRFFVLNNEAGLLEYFVNEQSRNQKPRGTLQLAGAVISPSDEDSHTFTVNAASGEQYKLRATDAKERQHWVSRLQICTQHHTEAIGKNN,soluble
3,LTGPQLAVVGSRQPSPYALRAMRRLLPQVVRQQVCLVSGLAQGVDTLAHQAALAHRGKTIAVIGTGLDHCYPAGNRDLMTELAHHHLVISEYPWGTAGARHHFPERNRIIAGLSQSTLVVEAARHSGSLITANIALQENRNVLAVPGSLDNPNSVGTNELILAGAKPILNSEHIIEEVLVDKRL,not soluble
4,MIDLAPLVRRLAGTPLAEWANGLQAQLDTKMSKGHGDLQRWQSALDALPALQPEKVDLTDSFTLETECDGETRTVLRKALLGLSPWRKGPFNVFGVHIDTEWRSDWKWSRVSPHLDLKGKRVLDVGCGNGYYQWRMLGAGADSVIGVDPNWLFFCQFQAMQRYLPDLPAWHLPFALEDLPANLEGFDTVFSMGVLYHRKSPIDHLLALKDCLVKGGELVMETLVIPGDVHQVLVPEDRYAQMRNVWFLPSVPALELWMRRAGFTDVRCVDVSHTTVEEQRSTEWMRFQSLGDYLDPNDHSKTVEGLPAPMRAVIVGRKP,not soluble
5,MEQLTVQGLVRLMGAGANLVCVVTDNERRTEAIVGQATARLKGAGSPLVWTCTDGFTRDGTVVPGTVDPVAALDHALAHPAPLMTLFKDLSWFWSDNPYVIRKLKEFAVRARGKAAVVLARDESVPAELREDIVVLGQGLPGIGEITAFLGQLKEREPVLAAACAGHPGLMDHLVVAAQGLDLVDIERGVRALRNVPEAAGHEMVRSLFETKQAVIRRSGIMEFVANDTAPEQVGGMENLKAWMERREQAFGLESIASGAALPKGILMMGIAGCGKSLFVKAIAARWRLPLIRLDMAAVYDGSFGTPESSLRKAFRTAEAVAPCVLWIDEIESGISVQGFKAEGGPASRLLGSFLTWMQEKKAPVFVAATANAIEMLPAEIIRKGRFDEVFYVGLPDAGAREDIFRIHLERQKADSARFDVPLLAGSTKGFSGAEIEQAVLSAAFEARADRRTLTQQDVIVAVSRTVPLSVTMAEQIKKIEAWAFKRAVPAAGKF,not soluble
6,MTIAYEHPNALTYLKSMKENIIRFANKKSLYTQHDEYIKNVFMDERVNLKYHCESIVSYIAEAFIHYSVWDHSHAYYPGRPSQQTARTDALEGTSRTLPTLAAWLHANGRSNTIITGLNQQPILVPEILRKAFLAGTNPQHKGYWGTLHHCDQRVCEGADLALALWMSKEWVWDCFSIDEKCQIITWFKQVNQCETVDNNWHLFVLTVQIVLKALTGEDEVQYDKYERVKEFYVGDGWFRDGAKGNYDYYNAWAFHYSLYWFTQIDVDFDSTFINNALSDFVGNYRYFFGKEGFPFFGRSACYRLAAAAPLLAAVDLQSDKITIGEAKRAFHCNLKYFISNGALKAGLPTQGLFDEDVRLVDNYSGPASSLWSLRALNIALFCGEKINLWQAEEAPLAIEQGNFELDISAINMKILGVYETQEVIAIFKNEYTQDQSPLSRRLLAPSLEHHHHHH,soluble
7,MGSDKIHHHHHHMQNTSYIALSRQAALWRQMEVVANNMANANTPAFKGEEMMFREFLVPTRSSERAIGGKLAFVQDVGVLRDTREGPLTKTDNPLDFALHGDGYFQIETEAGMRYARNGHFRLDQTGMLVNSQGYAVMDDRDQPIVFAPNETRVEVASDGTVSTENGRVARMKVVKFENDQLLRKAGDSLFETTQDPEAVQSPNVAQGMMEESNVQPVLEMTRMTQILREYQGVQKMLDAEHERQLKAIQTLGSSKTN,not soluble
8,MSLDIAVVGIGYVGLVSATCFAELGANVRCIDTDRNKIEQLNSGTIPIYEPGLEKMIARNVKAGRLRFGTEIEQAVPEADIIFIAVGTPAGEDGSADMSYVLDAARSIGRAMSRYILIVTKSTVPVGSYRLIRKAIQEELDKREVLIDFDIASNPEFLKEGNAIDDFMKPDRVVVGVDSDRARELITSLYKPMLLNNFRVLFMDIASAEMTKYAANAMLATRISFMNDVANLCERVGADVSMVRLGIGSDSRIGSKFLYPGCGYGGSCFPKDVKALIRTAEDNGYRMEVLEAVERVNEKQKSILFDKFSTYYKGNVQGRCVAIWGLSFKPGTDDMREAPSLVLIEKLLEVGCRVRVYDPVAMKEAQKRLGDKVEYTTDMYDAVRGAEALFHVTEWKEFRMPDWSALSQAMAASLVIDGRNVYELPADSDFTLLNIGNSAIESEGHHHHHH,soluble
9,MSLGNIKTLLENRFKKPTSDKMESLAKKRLEGELSPFLNGFTNPKLSSQEEAKFRQLLEEYSFSNEISKHDLQQLCHLSAQVKQIHHQAVLLHGERIKKVRELLTSYREGAFSAWLLLTYGNRQTPYNFLVYYELFSTLPDSLKLELEKLPRQAVYTLAAREGTQEKKEAIIRNYQGETKGELLEIIRKEFPLLPTDRRHTPLSQKAFTLLAKGTKLLRQCTDVSHEELIALEKLIKKLQKVTTNLLSNTKVSRNDNEIQNSRNEGHHHHHH,soluble
10,MPDQPSHNPAEHTTGEAPAPDALRADARRNRERVLEAAREVFSARGVDAPMSAVARRAGVGVATLYRRFPTRSSLVAAAFDDQLTVCAAAFDEALADPDPGHGLYTLLRKVCTTLVTDRGFETVFMAGFPASLDYDRERACAEERLAHLVRRARDAGRLREDFSPADIPLLLLAVSGLASQPPETAVPAAHRLLTYLFQSFQADPPPRPAPLPPAPTLDLSGLHRPAERP,not soluble
11,MSLSQNNPLRALLDKQDILLLDGAMATELEARGCNLADSLWSAKVLVENPELIREVHLDYYRAGAQCAITASYQATPAGFAARGLDEAQSKALIGKSVELARKAREAYLAENPQAGTLLVAGSVGPYGAYLADGSEYRGDYHCSVEAFQAFHRPRVEALLDAGADLLACETLPNFSEIEALAELLTAYPRARAWFSFTLRDSEHLSDGTPLRDVVALLAGYPQVVALGINCIALENTTAALQHLHGLTVLPLVVYPNSGEHYDAVSKTWHHHGEHCAQLADYLPQWQAAGARLIGGCCRTTPADIAALKARSEGGSHHHHHH,soluble
12,MLKRRQPKYCSFMDSIDNSTTIIRKNLNRFIRELTDDGKLDFESIPYQNLQKEVANQDEEGCENVIEVLLDTTSRSGCPDRKLILQLFNSFFLQFPIFRENLLNDPSEFLELMFETNPIRNPLPGSKKHGNELKVEAITVIKSWEKEKCVKNDARMKCLVVTLKKTKFVDYENGAKKIEAERKRKKILEERKMKMIENSVNVYSSKYHEIKNDAETLSMELTTTMQMLVPSFTTADPEVPSTSTSTPSAISDSKSFEIFIPDLTPEISVSSENDAIVEAFLGAKLSLIHRVQTLRKLVKRLQLLKQPGEKLAQEIIDYRDGIKNLVLKADELRIINPRPPKNKRKKSDDDFIDVDISIDDILMVQYAEKLEVDVKSKDESEKITESPEKHKIEMKNEKPVKIKTVPFGLDLKYWGEERKDVEVPKNNADCHRFWRSADEGTVAGKAQQSIYTQRQYTFIGKAPDNRKVCLAKMKSGKLCPRKDYYTCPLHGKIVDRDDEGRPINEEDRLEENYRKEQNHLKEADKIRQMIEKEYESKTKRRKKHDVDTTASEDVRNRLQKKLLDPKTIQRVSADLDASRKNRLEKNFGQQFSHF,not soluble
13,MGSDKIHHHHHHMTMPYVKNTKEILEKASKERYAIGAFNFNNMEFLQAILEAAEEEKAPVIVATSEGAIKYIGKGDIETGAKLAVEMVRTYAEKLSVPVALHLDHGRDFKVIMAAIKAGYSSVMIDASHLPFEENLRETKRIVEIAHAVGISVEAELGKLKGIEDNVVEKESVLVDPEEAKVFVKETEVDFLAPAIGTSHGAFKFKGEAQLDFERLKKVKEYTQIPLVLHGASMVPQDIVKLANEYGAELSGAKGVPEDMLKKAIELGINKINTDTDLRITFVAYLRKVLSEDKSQIDPRKIFKPVFEQVKEIVKERIRIFGSSGKA,not soluble
14,MGSDKIHHHHHHAAVKKIIEMGQNDNQVMHQLDILTNRFGGRLIGSDAYENAAEWMVREFKSWGLDVQLEEAGTVPVGFNRGPWFGRLLSDNGMILHFATPSYTSGTKGVQRGHAVMEPRNDEEFQQIKGRLNGAWVLISGKNVGWPIDRSASGDSIRAEIKKENNEIMKKNNDLRRRNWENGEKNEMLPYKEFPGLYYKEMCEAGALGFIQSSTVPIRALYDRKMMNDPNTNFDNLPELPDIKLDEHQFAIIEQMVKERRTFELEFDIRNHFKLGPVKYHNVVASIKGSKYPDEYVIISGHLDAFDVATGGIDCGTGIGPMMEAARMIAKSGAKPKRTILFIGFAGEEFGLLGAQAWVKAHKDKLPKIANLFNRDGGPEPPVGISVPQAMYDDFVKISEPIQKIRPDYPFEVKVREPRKRPTRMGGTDASVFAIEGVPTLGFTTEDFKGYDFDYGEIWHTERDLYTKNIPEYQEHTATVTAIIALGVANLDKQLSREGLYTEE,not soluble
15,MSLNIIERQKLTQSLKLSQMMKLSINILKMSVMDLNKFIEKEFSEDSGISVELNYSKKENFNGGKEAEMNYPTDEKNFFQILEEQLSYFKINKKIKEICIFIINNLDKKGYLELSKIEIKDILEVSNKELEEAFDIIHNLEPYGIGAYSLEECLKIQLKAKKIIEEKLSLFIDNYLYLLADKKYDLIKEKLNINDNILFSYIDIIKSLNPIPSRGYSVGKVRKIIPDVLVEIKKNEIFYEINRASIPQINVKDKIEDEGHHHHHH,not soluble
16,MRGLLILLLSLICLATPVLAQPVAAEQPLPDIRQRGFVYCVSGILNTFNPQMASSGLTVDTLAAQLYDRLLDVDPYTYRLIPELAESWQVLDNGATYRFHLRKDVPFQTTDWFTPTRMMNADDVVFSFQRVFDSKHPYHKVNGGEYPYFDSLQFASAVKSVKKLDDYTVEFKLKAPDASFLWHLATHYAPVLSSEYADVLTQKGKEEQIDREPVGTGPFLLDEYRSGQYIRLFRNSHYWKGVPRMPQVVIDLGVGGTGRLSKLLTGECDVLAYPAASQLSILRDDPPRLRLTLRPGMNVAYLAFNTRKPPLSDQRVRQAIALSINNQRLMQSIYYGTAETAASILPRASWAYDNQAQVTEYNPEKAKEILKDLGITQLQLNLWVPTASQSYNPSPLKTAELIQADLAQVGISVTIVPVEGRFQEARLMEMNHDLTLSGWSTDSNDPDSFFRPLLSCAAIRSQTNYAHWCDPAFDELLQKALRSQQLSERIEYYQQAQRILEQQLPLLPLASSLRLQAYRYDIKGLVLSPFGNSSFAGVYRESDEGKTP,not soluble
17,MGSDKIHHHHHHVPVSQLPSQPTDNNSSAATDVTPVVALKELVARLHREQNKIQDLLSSLGFALRSFNNLNQFLELIPLMATRVTDADGSALFLYKPNGQVRLEQLHWQDSGQRKNIRKALEIASSQITLLPNAAPLANATGILDDQMHRYLGPDVQIFGTAILVKHTERGWLYVLSRDPEYSWTETRQKLVRLVADQTAVAIENDELAVELRKKERLDQELEIGAEIQRRLLPRQCPTIPGAVLAARCKPANRVGGDYYDFIATNQNKIRSKTKGDTETGRWGLVIGDVMGKGVPAGLIMTMMRGMLRGEVLHGNSPAKILQNLNRVMYADLENSHRFVTLFYSEYNPHSRILSYSNAAHNPPLWWHAATKTVSRLDTLGMLIGLDANSQYEDAQVQLEPGDTIIYYTDGLTDAAAAGGDRFDEDNFVAGFNTACKYCNGPEEIVDYLFDQVQQFIGDDKQNTDDMTLVVLQIL,not soluble
18,QRRLEVKGVVNNITVYDDFAHHPTAITATIDALRAKVGQQRILAVLEPRSNTMKMGVHKHELATSLQDADSVFIYQPPTIEWQVSEVLANLAQPAISADDVDELVMRIVQQAKPNDHILIMSNGAFGGIHQKLLTALANAFLMPS,not soluble
